In article PMC1868598:

Columns and labels:
[1] = confocal colocalisation with GFP-Rab4, transfected HeLa/COS-1; conditions: glycan lost; control: wild type
[2] = Triton X-100 lysis, sucrose gradient flotation, COS-1; conditions: glycan lost; control: wild type

B1: human ClC-6 (hClC-6a): AAA-hClC-6 (protein)
parent chain: MAGCRGSLCCCCRWCCCCGERETRTPEELTILGETQEEEDEILPRKDYESLDYDRCINDPYLEVLETMDNKKGRRYEAVKWMVVFAIGVCTGLVGLFVDFFVRLFTQLKFGVVQTSVEECSQKGCLALSLLELLGFNLTFVFLASLLVLIEPVAAGSGIPEVKCYLNGVKVPGIVRLRTLLCKVLGVLFSVAGGLFVEKEGPMIHSGSVVGAGLPQFQSISLRKIQFNFPYFRSDRDKRDFVSAGAAAGVAAAFGAPIGGTLFSLEEGSSFWNQGLTWKVLFCSMSATFTLNFFRSGIQFGSWGSFQLPGLLNFGEFKCSDSDKKCHLWTAMDLGFFVVMGVIGGLLGATFNCLNKRLAKYRMRNVHPKPKLVRVLESLLVSLVTTVVVFVASMVLGECRQMSSSSQIGNDSFQLQVTEDVNSSIKTFFCPNDTYNDMATLFFNPQESAILQLFHQDGTFSPVTLALFFVLYFLLACWTYGISVPSGLFVPSLLCGAAFGRLVANVLKSYIGLGHIYSGTFALIGAAAFLGGVVRMTISLTVILIESTNEITYGLPIMVTLMVAKWTGDFFNKGIYDIHVGLRGVPLLEWETEVEMDKLRASDIMEPNLTYVYPHTRIQSLVSILRTTVHHAFPVVTENRGNEKEFMKGNQLISNNIKFKKSSILTRAGEQRKRSQSMKSYPSSELRNMCDEHIASEEPAEKEDLLQQMLERRYTPYPNLYPDQSPSEDWTMEERFRPLTFHGLILRSQLVTLLVRGVCYSESQSSASQPRLSYAEMAEDYPRYPDIHDLDLTLLNPRMIVDVTPYMNPSPFTVSPNTHVSQVFNLFRTMGLRHLPVVNAVGEIVGIITRHNLTYEFLQARLRQHYQTI
localisation_or_trafficking [1]: no change
other: detergent-resistant membrane association [2]: no change
